The assay has as its target FITC-labeled porcine brain tubulin (porcine) (UniProt P02550). The assay is described as follows: co-sedimentation.

We go through one substance from paper PMC2113761.

Regarding “FITC-labeled porcine brain tubulin (from UniProt P02550 1-451) (complex)”, the fluorescence intensity (B/A) of the precipitate, labeled tubulin alone (6:0) was determined as 27.5.
